# Data published in paper PMC6090078.
# Tested on: T1, AcrR (His6-AcrR) (Acinetobacter nosocomialis ATCC 17903 (NCTC 8102)?), ORF:b0b0015b
# T1 sequence: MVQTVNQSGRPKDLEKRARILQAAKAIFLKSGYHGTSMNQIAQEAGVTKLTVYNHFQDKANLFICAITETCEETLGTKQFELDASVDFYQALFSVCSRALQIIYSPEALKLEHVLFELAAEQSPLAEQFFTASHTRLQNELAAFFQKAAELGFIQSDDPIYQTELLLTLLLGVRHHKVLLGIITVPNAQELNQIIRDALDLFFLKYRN
# Experiment: EMSA
sequence,measurement,value
"AAAACCCTCTAATAAAAGATTAAAAAAATAAATATTTATAAGTTTTTTTTAATTAATGTACCCATGGGTATATTAATTAAAAAACAAACAAACTATGATGCAAGCATATTGTGCCTTAAAAAATCAGTTTGAATAAGAGCGATAAGAT (double strand) [PacrA/acrR promoter fragment, 148 bp]",binding,binds
